# According to patent publication US20150094219A1:
# Assays:
# GFP^2-RG-RLuc2 (GTR2) = GFP^2-RG-RLuc2 (GTR2) (UniProt P27652)
# [1] = biological target: GFP^2-RG-RLuc fusion protein (UniProt P27652)
# [2] = biological target: thrombin protease (Amersham Biosciences); test: cell-based or functional assay
# Sequence of GFP^2-RG-RLuc fusion protein (P27652 other isoform, or with tags, fused parts or gaps): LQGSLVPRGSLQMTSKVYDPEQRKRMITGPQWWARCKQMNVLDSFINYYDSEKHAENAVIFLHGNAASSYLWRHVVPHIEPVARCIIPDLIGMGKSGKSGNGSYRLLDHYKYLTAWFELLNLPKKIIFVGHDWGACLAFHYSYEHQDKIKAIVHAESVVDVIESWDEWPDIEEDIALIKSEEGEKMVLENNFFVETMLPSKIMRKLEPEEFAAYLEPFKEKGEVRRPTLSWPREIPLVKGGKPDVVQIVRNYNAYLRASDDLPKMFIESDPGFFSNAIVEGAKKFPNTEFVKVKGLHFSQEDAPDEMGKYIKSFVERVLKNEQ
# Sequence of Recombinant hirudin from yeast (Sigma) (P01050 whole entry): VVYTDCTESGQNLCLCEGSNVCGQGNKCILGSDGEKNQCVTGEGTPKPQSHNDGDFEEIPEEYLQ
# Sequence of GFP^2-RG-RLuc2 (GTR2) (P27652 other isoform, or with tags, fused parts or gaps): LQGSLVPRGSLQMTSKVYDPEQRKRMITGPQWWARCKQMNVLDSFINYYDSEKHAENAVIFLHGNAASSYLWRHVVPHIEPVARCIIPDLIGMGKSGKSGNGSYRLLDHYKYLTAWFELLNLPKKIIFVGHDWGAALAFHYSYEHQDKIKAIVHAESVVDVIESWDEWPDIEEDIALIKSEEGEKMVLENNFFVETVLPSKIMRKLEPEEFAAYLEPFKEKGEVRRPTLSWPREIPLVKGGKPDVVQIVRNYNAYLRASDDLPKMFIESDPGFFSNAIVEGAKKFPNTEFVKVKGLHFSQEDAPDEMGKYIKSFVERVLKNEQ
Substance,change of BRET^2 ratio of GTR2 after 2 units of thrombin in diluted milk and orange juice (GFP^2-RG-RLuc2 (GTR2)),BRET^H ratio following thrombin cleavage [1],SDS-PAGE of the sensor after thrombin treatment [1],bioluminescence spectrum of the sensor after thrombin [1],change of BRET^2 ratio (GFP/RLuc) at 270 pM thrombin [1],"decrease in BRET^2 signal, on-chip mixing of 1 µM sensor with 540 nM thrombin and substrate [1]",decrease of the BRET^H ratio following thrombin cleavage [1],"detection limit for thrombin, microchip BRET^H [1]","detection limit for thrombin, microplate BRET^H [1]",hybrid BRET ratio following thrombin cleavage [1],"lowest thrombin concentration observable in real time (120 seconds), side-by-side network [1]","lowest thrombin concentration tested and detected, pancake stack network [1]","thrombin concentration detected easily, pancake stack network (478 second residence time) [1]","upper end of the linear change of BRET^H ratio with thrombin concentration, microfluidic [1]","upper end of the linear change of BRET^H ratio with thrombin concentration, microplate [1]",BRET^H ratio of the sensor with thrombin after pre-addition of hirudin [2]
thrombin protease (Amersham Biosciences),Thrombin activity was detected in 1/10 dilutions of milk and orange juice,from 1.11±0.06 to 0.75±0.04,the fusion protein was cleaved into two components with molecular weights of 32.4 KDa and 36.4 KDa,Upon thrombin cleavage the green component of the spectrum was reduced,10 fold,Approximately 75% decrease in BRET^2 signal,by approximately 32%,27 pM,310 pM,0.79,540 nM,"Thrombin was detected down to 14 nM, the lowest concentration tested",27 nM thrombin could be detected easily,up to 0.24 nM for microfluidic measurements,2.7 nM for microplate measurements,–
Recombinant hirudin from yeast (Sigma) (from UniProt P01050 1-65),–,–,–,–,–,–,–,–,–,–,–,–,–,–,–,1.08
